How the values were obtained:
[1] = target: gp41 of mutant "D-I-A" (pNL-Bal with Glycine to Aspartic Acid at position 36 and Valine to Alanine at position 38 of gp41) (HIV-1 clone BAL2 (subtype B, CCR5-tropic))
[2] = target: gp41 of mutant "G-I-A" (pNL-Bal with Valine to Alanine at position 38 of gp41) (HIV-1 clone BAL2 (subtype B, CCR5-tropic))
[3] = target: gp41 of pNL4-3 (HIV-1 pNL4-3 (subtype B, CXCR4-tropic))
[4] = target: gp41 of mutant "G-I-A" (pNL-Bal with Valine to Alanine at position 38 of gp41) (HIV-1 clone BAL2 (subtype B, CCR5-tropic)); remark: listed apart in the source

T20 (Enfuvirtide, Fuzeon) (peptide)
IC50 (nM), inhibition of viral replication, deCIPhR [1]: 2270 nM
Rf (resistance factor, IC50 on mutant virus / IC50 on reference strain) [1]: 227 fold
IC50 (nM), inhibition of viral replication, deCIPhR [2]: 127 nM
Rf (resistance factor, IC50 on mutant virus / IC50 on reference strain) [2]: 12.7 fold
IC50 (nM), inhibition of viral replication, deCIPhR cell to cell infection [3]: 76 nM
IC50 (nM), inhibition of viral replication, virus to cell infection [3]: 48 nM
Resistance factor (IC50mut/IC50wt) IC50 fold increase [4]: 13 fold

Source: US20160313325A1
